B1: Mutant of the C-terminal part and histidine tag, SEQ ID NO: 26 (other)
chain: MHHHHHHGAMARKELSSLEELFRHYGVRYMTLTKMVEMGFTVNTLVNMTEQELDDVIRTLVDIYRVDLLVGEKYGIKSAVRAEKRRLDELERKKGGSC
B2: Mutant of the C-terminal part and the histidine tag, SEQ ID NO: 18 (C-terminal part removed, histidine tag modified) (other)
chain: MHHHHHHGAMARKELSSLEELFRHYGVRYMTLTKMVEMGFTVNTLVNMTEQELDDVIRTLVDIYRVDLLVGEKYGIKSAVRAEKRR
B3: Mutant of the C-terminal part and histidine tag, SEQ ID NO: 27 (other)
chain: MHHHHHHGAMARKELSSLEELFRHYGVRYMTLTKMVEMGFTVNTLVNMTEQELDDVIRTLVDIYRVDLLVGEKYGIKSAVRAEKRRLDELERKKGGSHHHHHH
B4: Mutant with a self-reducing sequence at the C-terminal part, SEQ ID NO: 31 (C-terminal part and histidine tag modified) (other)
chain: MKHHHHHHPGAMARKELSSLEELFRHYGVRYMTLTKMVEMGFTVNTLVNMTEQELDDVIRTLVDIYRVDLLVGEKYGIKSAVRAEKRRLDELERKKGGSWAGAKRLVLRRE
B5: Mutant with a self-reducing sequence at the C-terminal part, SEQ ID NO: 29 (C-terminal part and histidine tag modified) (other)
chain: MKHHHHHHPGAMARKELSSLEELFRHYGVRYMTLTKMVEMGFTVNTLVNMTEQELDDVIRTLVDIYRVDLLVGEKYGIKSAVRAEKRRLDELERKKGGSTGTSVLIATPGV

Target: the molecule itself
Test: self-assembly (homo-oligomerisation) by crystallisation on a substrate

Binding result, binds:
B1
B2
B3
B4
B5
